B1: Ras-related protein Rab-8A (Homo sapiens), P61006 (parent)
chain: MAKTYDYLFKLLLIGDSGVGKTCVLFRFSEDAFNSTFISTIGIDFKIRTIELDGKRIKLQIWDTAGQERFRTITTAYYRGAMGIMLVYDITNEKSFDNIRNWIRNIEEHASADVEKMILGNKCDVNDKRQVSKERGEKLALDYGIKFMETSAKANINVENAFFTLARDIKAKMDKKLEGNSPQGSNQGVKITPDQQKRSSFFRCVLL
partner: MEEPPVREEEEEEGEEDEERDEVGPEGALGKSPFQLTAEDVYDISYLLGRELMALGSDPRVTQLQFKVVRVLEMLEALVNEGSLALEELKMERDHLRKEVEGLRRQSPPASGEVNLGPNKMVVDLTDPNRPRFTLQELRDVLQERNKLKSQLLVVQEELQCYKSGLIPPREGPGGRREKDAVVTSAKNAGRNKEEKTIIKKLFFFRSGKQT
B2: RILP-like protein 2 (Homo sapiens), Q969X0 (parent)
chain: B1 partner

Variants of: B1
Conditions: with ripl2_human RILPL2, Q969X0

Row | effect of a mutation on the interaction | Variant
1 | with no effect | MAKAYDYLFKLLLIGDSGVGKTCVLFRFSEDAFNSTFISTIGIDFKIRTIELDGKRIKLQIWDTAGQERFRTITTAYYRGAMGIMLVYDITNEKSFDNIRNWIRNIEEHASADVEKMILGNKCDVNDKRQVSKERGEKLALDYGIKFMETSAKANINVENAFFTLARDIKAKMDKKLEGNSPQGSNQGVKITPDQQKRSSFFRCVLL [T4A]
2 | disrupting interaction strength | MAKTYDYLFKLLLIGDSGVGKTCVLFRFSEDAFNSTFISTIGIAFKIRTIELDGKRIKLQIWDTAGQERFRTITTAYYRGAMGIMLVYDITNEKSFDNIRNWIRNIEEHASADVEKMILGNKCDVNDKRQVSKERGEKLALDYGIKFMETSAKANINVENAFFTLARDIKAKMDKKLEGNSPQGSNQGVKITPDQQKRSSFFRCVLL [D44A]

Variants of: B2
Conditions: with rab8a_human RAB8A

Row | effect of a mutation on the interaction | Variant
3 | decreasing interaction strength | MEEPPVREEEEEEGEEDEERDEVGPEGALGKSPFQLTAEDVYDISYLLGRELMALGSDPRVTQLQFKVVRVLEMLEALVNEGSLALEELKMERDHLRKEVEGLRRQSPPASGEVNLGPNKMVVDLTDPNRKRFTLQELRDVLQERNKLKSQLLVVQEELQCYKSGLIPPREGPGGRREKDAVVTSAKNAGRNKEEKTIIKKLFFFRSGKQT [P131K]
4 | decreasing interaction strength | MEEPPVREEEEEEGEEDEERDEVGPEGALGKSPFQLTAEDVYDISYLLGRELMALGSDPRVTQLQFKVVRVLEMLEALVNEGSLALEELKMERDHLRKEVEGLRRQSPPASGEVNLGPNKMVVDLTDPNRRRFTLQELRDVLQERNKLKSQLLVVQEELQCYKSGLIPPREGPGGRREKDAVVTSAKNAGRNKEEKTIIKKLFFFRSGKQT [P131R]
5 | decreasing interaction strength | MEEPPVREEEEEEGEEDEERDEVGPEGALGKSPFQLTAEDVYDISYLLGRELMALGSDPRVTQLQFKVVRVLEMLEALVNEGSLALEELKMERDHLRKEVEGLRRQSPPASGEVNLGPNKMVVDLTDPNRARFTLQELRDVLQERNKLKSQLLVVQEELQCYKSGLIPPREGPGGRREKDAVVTSAKNAGRNKEEKTIIKKLFFFRSGKQT [P131A]
6 | decreasing interaction strength | MEEPPVREEEEEEGEEDEERDEVGPEGALGKSPFQLTAEDVYDISYLLGRELMALGSDPRVTQLQFKVVRVLEMLEALVNEGSLALEELKMERDHLRKEVEGLRRQSPPASGEVNLGPNKMVVDLTDPNRCRFTLQELRDVLQERNKLKSQLLVVQEELQCYKSGLIPPREGPGGRREKDAVVTSAKNAGRNKEEKTIIKKLFFFRSGKQT [P131C]
7 | disrupting interaction strength | MEEPPVREEEEEEGEEDEERDEVGPEGALGKSPFQLTAEDVYDISYLLGRELMALGSDPRVTQLQFKVVRVLEMLEALVNEGSLALEELKMERDHLRKEVEGLRRQSPPASGEVNLGPNKMVVDLTDPNRPKFTLQELRDVLQERNKLKSQLLVVQEELQCYKSGLIPPREGPGGRREKDAVVTSAKNAGRNKEEKTIIKKLFFFRSGKQT [R132K]
8 | disrupting interaction strength | MEEPPVREEEEEEGEEDEERDEVGPEGALGKSPFQLTAEDVYDISYLLGRELMALGSDPRVTQLQFKVVRVLEMLEALVNEGSLALEELKMERDHLRKEVEGLRRQSPPASGEVNLGPNKMVVDLTDPNRPQFTLQELRDVLQERNKLKSQLLVVQEELQCYKSGLIPPREGPGGRREKDAVVTSAKNAGRNKEEKTIIKKLFFFRSGKQT [R132Q]
9 | disrupting interaction strength | MEEPPVREEEEEEGEEDEERDEVGPEGALGKSPFQLTAEDVYDISYLLGRELMALGSDPRVTQLQFKVVRVLEMLEALVNEGSLALEELKMERDHLRKEVEGLRRQSPPASGEVNLGPNKMVVDLTDPNRPEFTLQELRDVLQERNKLKSQLLVVQEELQCYKSGLIPPREGPGGRREKDAVVTSAKNAGRNKEEKTIIKKLFFFRSGKQT [R132E]
10 | decreasing interaction strength | MEEPPVREEEEEEGEEDEERDEVGPEGALGKSPFQLTAEDVYDISYLLGRELMALGSDPRVTQLQFKVVRVLEMLEALVNEGSLALEELKMERDHLRKEVEGLRRQSPPASGEVNLGPNKMVVDLTDPNQPRFTLQELRDVLQERNKLKSQLLVVQEELQCYKSGLIPPREGPGGRREKDAVVTSAKNAGRNKEEKTIIKKLFFFRSGKQT [R130Q]
11 | disrupting interaction strength | MEEPPVREEEEEEGEEDEERDEVGPEGALGKSPFQLTAEDVYDISYLLGRELMALGSDPRVTQLQFKVVRVLEMLEALVNEGSLALEELKMERDHLRKEVEGLRRQSPPASGEVNLGPNKMVVDLTDPNEPRFTLQELRDVLQERNKLKSQLLVVQEELQCYKSGLIPPREGPGGRREKDAVVTSAKNAGRNKEEKTIIKKLFFFRSGKQT [R130E]
12 | decreasing interaction strength | MEEPPVREEEEEEGEEDEERDEVGPEGALGKSPFQLTAEDVYDISYLLGRELMALGSDPRVTQLQFKVVRVLEMLEALVNEGSLALEELKMERDHLRKEVEGLRRQSPPASGEVNLGPNKMVVDLTDPNAPRFTLQELRDVLQERNKLKSQLLVVQEELQCYKSGLIPPREGPGGRREKDAVVTSAKNAGRNKEEKTIIKKLFFFRSGKQT [R130A]
13 | decreasing interaction strength | MEEPPVREEEEEEGEEDEERDEVGPEGALGKSPFQLTAEDVYDISYLLGRELMALGSDPRVTQLQFKVVRVLEMLEALVNEGSLALEELKMERDHLRKEVEGLRRQSPPASGEVNLGPNKMVVDLTDPNKPRFTLQELRDVLQERNKLKSQLLVVQEELQCYKSGLIPPREGPGGRREKDAVVTSAKNAGRNKEEKTIIKKLFFFRSGKQT [R130K]
14 | decreasing interaction strength | MEEPPVREEEEEEGEEDEERDEVGPEGALGKSPFQLTAEDVYDISYLLGRELMALGSDPRVTQLQFKVVRVLEMLEALVNEGSLALEELKMERDHLRKEVEGLRRQSPPASGEVNLGPNKMVVDLTDPNRPRFTAQELRDVLQERNKLKSQLLVVQEELQCYKSGLIPPREGPGGRREKDAVVTSAKNAGRNKEEKTIIKKLFFFRSGKQT [L135A]
15 | decreasing interaction strength | MEEPPVREEEEEEGEEDEERDEVGPEGALGKSPFQLTAEDVYDISYLLGRELMALGSDPRVTQLQFKVVRVLEMLEALVNEGSLALEELKMERDHLRKEVEGLRRQSPPASGEVNLGPNKMVVDLTDPNRPRFTLQELEDVLQERNKLKSQLLVVQEELQCYKSGLIPPREGPGGRREKDAVVTSAKNAGRNKEEKTIIKKLFFFRSGKQT [R139E]
16 | with no effect | MEEPPVREEEEEEGEEDEERDEVGPEGALGKSPFQLTAEDVYDISYLLGRELMALGSDPRVTQLQFKVVRVLEMLEALVNEGSLALEELKMERDHLRKEVEGLRRQSPPASGEVNLGPNKMVVDLTDPNRPRFTLQELADVLQERNKLKSQLLVVQEELQCYKSGLIPPREGPGGRREKDAVVTSAKNAGRNKEEKTIIKKLFFFRSGKQT [R139A]
17 | with no effect | MEEPPVREEEEEEGEEDEERDEVGPEGALGKSPFQLTAEDVYDISYLLGRELMALGSDPRVTQLQFKVVRVLEMLEALVNEGSLALEELKMERDHLRKEVEGLRRQSPPASGEVNLGPNKMVVDLTDPNRPRFTLQELQDVLQERNKLKSQLLVVQEELQCYKSGLIPPREGPGGRREKDAVVTSAKNAGRNKEEKTIIKKLFFFRSGKQT [R139Q]
18 | decreasing interaction strength | MEEPPVREEEEEEGEEDEERDEVGPEGALGKSPFQLTAEDVYDISYLLGRELMALGSDPRVTQLQFKVVRVLEMLEALVNEGSLALEELKMERDHLRKEVEGLRRQSPPASGEVNLGPNKMVVDLTDPNRPRFTLQELRDVLQERNKLKSQLLVVQAELQCYKSGLIPPREGPGGRREKDAVVTSAKNAGRNKEEKTIIKKLFFFRSGKQT [E157A]
19 | decreasing interaction strength | MEEPPVREEEEEEGEEDEERDEVGPEGALGKSPFQLTAEDVYDISYLLGRELMALGSDPRVTQLQFKVVRVLEMLEALVNEGSLALEELKMERDHLRKEVEGLRRQSPPASGEVNLGPNKMVVDLTDPNRPRFTLQELRDVLQERNKLKSQLLVVQKELQCYKSGLIPPREGPGGRREKDAVVTSAKNAGRNKEEKTIIKKLFFFRSGKQT [E157K]
20 | decreasing interaction strength | MEEPPVREEEEEEGEEDEERDEVGPEGALGKSPFQLTAEDVYDISYLLGRELMALGSDPRVTQLQFKVVRVLEMLEALVNEGSLALEELKMERDHLRKEVEGLRRQSPPASGEVNLGPNKMVVDLTDPNRPRFTLQELRDVLQERNKLKSQLLVVQQELQCYKSGLIPPREGPGGRREKDAVVTSAKNAGRNKEEKTIIKKLFFFRSGKQT [E157Q]
21 | disrupting interaction strength | MEEPPVREEEEEEGEEDEERDEVGPEGALGKSPFQLTAEDVYDISYLLGRELMALGSDPRVTQLQFKVVRVLEMLEALVNEGSLALEELKMERDHLRKEVEGLRRQSPPASGEVNLGPNKMVVDLTDPNRPRATLQELRDVLQERNKLKSQLLVVQEELQCYKSGLIPPREGPGGRREKDAVVTSAKNAGRNKEEKTIIKKLFFFRSGKQT [F133A]
22 | decreasing interaction strength | MEEPPVREEEEEEGEEDEERDEVGPEGALGKSPFQLTAEDVYDISYLLGRELMALGSDPRVTQLQFKVVRVLEMLEALVNEGSLALEELKMERDHLRKEVEGLRRQSPPASGEVNLGPNKMVVDLTDPNRPRFTLQELRDVLQERNKLQSQLLVVQEELQCYKSGLIPPREGPGGRREKDAVVTSAKNAGRNKEEKTIIKKLFFFRSGKQT [K149Q]
23 | decreasing interaction strength | MEEPPVREEEEEEGEEDEERDEVGPEGALGKSPFQLTAEDVYDISYLLGRELMALGSDPRVTQLQFKVVRVLEMLEALVNEGSLALEELKMERDHLRKEVEGLRRQSPPASGEVNLGPNKMVVDLTDPNRPRFTLQELRDVLQERNKLESQLLVVQEELQCYKSGLIPPREGPGGRREKDAVVTSAKNAGRNKEEKTIIKKLFFFRSGKQT [K149E]
24 | decreasing interaction strength | MEEPPVREEEEEEGEEDEERDEVGPEGALGKSPFQLTAEDVYDISYLLGRELMALGSDPRVTQLQFKVVRVLEMLEALVNEGSLALEELKMERDHLRKEVEGLRRQSPPASGEVNLGPNKMVVDLTDPNRPRFTLQELRDVLQERNKLASQLLVVQEELQCYKSGLIPPREGPGGRREKDAVVTSAKNAGRNKEEKTIIKKLFFFRSGKQT [K149A]

Variants of: B2
Conditions: with rab8a_human RAB8A, P61006

Row | effect of a mutation on the interaction | Variant
25 | disrupting interaction strength | MEEPPVREEEEEEGEEDEERDEVGPEGALGKSPFQLTAEDVYDISYLLGRELMALGSDPRVTQLQFKVVRVLEMLEALVNEGSLALEELKMERDHLRKEVEGLRRQSPPASGEVNLGPNKMVVDLTDPNRPAFTLQELRDVLQERNKLKSQLLVVQEELQCYKSGLIPPREGPGGRREKDAVVTSAKNAGRNKEEKTIIKKLFFFRSGKQT [R132A]
